# According to the supplement of paper PMC9428881:
# ± gives the standard error.
# Assay: background-corrected fluorescence of 3'-dye-labeled ssDNA relative to brightest sequence (3'-GCGCG) (fraction); higher = brighter dye fluorescence (less quenching)
# Outline: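 Each of 1024 permuted pentamers was synthesized as single-stranded DNA on glass slides by light-directed phosphoramidite chemistry, with a 3' Cy3 or Cy5 dye alongside. Arrays were scanned at 532 or 635 nm before and after overnight deprotection with ethylenediamine/ethanol. Values average 10 features per array across at least 3 syntheses. The fluorescence readout, with unlabeled-oligo background removed, is given relative to the brightest sequence.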
Sequence,background-corrected fluorescence (dye: Cy3 (3' terminal)),background-corrected fluorescence (dye: Cy5 (3' terminal))
TTTTTGCATGAGCAGCAGCATTTTTTTTTTTTTTTTCTTT,0.504 ± 0.016,0.353 ± 0.032
TTTTTTGATGCTGAGCATGCTTTTTTTTTTTTTTTCACTA [ATCAC],0.471 ± 0.014,0.352 ± 0.025
TTTTTTGATGAGCAGCAGCATTTTTTTTTTTTTTTCCTTT,0.492 ± 0.016,0.347 ± 0.023
TTTTTTCAGCATCATGCTGATTTTTTTTTTTTTTTGTGAC [CAGTG],0.483 ± 0.02,0.387 ± 0.064
TTTTTTGAGCAGCATCATCATTTTTTTTTTTTTTTCTTGG [GGTTC],0.631 ± 0.038,0.47 ± 0.05
TTTTTTCATCATGATGCTGATTTTTTTTTTTTTTTGGCAC [CACGG],0.436 ± 0.03,0.336 ± 0.03
TTTTTTGCTGCGCATCATGCTTTTTTTTTTTTTTTAATGA [AGTAA],0.634 ± 0.032,0.524 ± 0.03
TTTTTTGATGCTGAGCATGATTTTTTTTTTTTTTTCACTC [CTCAC],0.399 ± 0.017,0.296 ± 0.022
TTTTTGCATGAGCAGCATCATTTTTTTTTTTTTTTTCTTG [GTTCT],0.489 ± 0.023,0.371 ± 0.032
TTTTTTCATCAGCATGATGATTTTTTTTTTTTTTTGGTCC [CCTGG],0.404 ± 0.0089,0.317 ± 0.03
TTTTTTGAGCATGATGAGCATTTTTTTTTTTTTTTCTCCT [TCCTC],0.41 ± 0.018,0.33 ± 0.032
TTTTTGCATGCTCATGCTGCTTTTTTTTTTTTTTTTAGAA [AAGAT],0.639 ± 0.018,0.533 ± 0.052
TTTTTTGAGCATCAGCATGATTTTTTTTTTTTTTTCTGTC,0.443 ± 0.03,0.352 ± 0.018
TTTTTTGCTCAGCATGATGCTTTTTTTTTTTTTTTAGTCA [ACTGA],0.529 ± 0.013,0.407 ± 0.029
TTTTTTGAGCATGCTGATCATTTTTTTTTTTTTTTCTACG [GCATC],0.565 ± 0.027,0.416 ± 0.022
TTTTTTGATGCGCAGCATCATTTTTTTTTTTTTTTCATTG [GTTAC],0.561 ± 0.029,0.363 ± 0.021
TTTTTGCATGATGCTGCTCATTTTTTTTTTTTTTTTCAAG [GAACT],0.515 ± 0.054,0.39 ± 0.042

Sequence,background-corrected fluorescence (dye: Cy3 (3' terminal)),background-corrected fluorescence (dye: Cy5 (3' terminal))
TTTTTGCATGAGCATGAGCATTTTTTTTTTTTTTTTCTCT,0.464 ± 0.014,0.332 ± 0.024
TTTTTTGCTGCTGCTGCTGATTTTTTTTTTTTTTTAAAAC [CAAAA],0.461 ± 0.048,0.321 ± 0.019
TTTTTTGCTGATGCGCATGCTTTTTTTTTTTTTTTACATA [ATACA],0.591 ± 0.025,0.403 ± 0.038
TTTTTTGCTCATGATCATCATTTTTTTTTTTTTTTAGCGG [GGCGA],0.716 ± 0.013,0.577 ± 0.042
TTTTTGCATGCTGATCATCATTTTTTTTTTTTTTTTACGG [GGCAT],0.697 ± 0.037,0.514 ± 0.04
TTTTTTGATGCTCATGATCATTTTTTTTTTTTTTTCAGCG [GCGAC],0.622 ± 0.036,0.502 ± 0.043
TTTTTGCATGCTGATGCGCATTTTTTTTTTTTTTTTACAT,0.489 ± 0.027,0.382 ± 0.025
TTTTTGCATGCTCAGCATGATTTTTTTTTTTTTTTTAGTC [CTGAT],0.492 ± 0.026,0.363 ± 0.023
TTTTTTGCGCAGCAGCATGCTTTTTTTTTTTTTTTATTTA,0.545 ± 0.017,0.432 ± 0.031
TTTTTTGATGATGATGAGCATTTTTTTTTTTTTTTCCCCT,0.438 ± 0.024,0.312 ± 0.016
TTTTTTGCTCATGAGCATCATTTTTTTTTTTTTTTAGCTG [GTCGA],0.524 ± 0.005,0.424 ± 0.058
TTTTTTGATGCTGCGCAGCATTTTTTTTTTTTTTTCAATT [TTAAC],0.538 ± 0.027,0.385 ± 0.029
TTTTTTGCTCATGCTGAGCATTTTTTTTTTTTTTTAGACT [TCAGA],0.519 ± 0.025,0.389 ± 0.039
TTTTTTCATGATGATGATGCTTTTTTTTTTTTTTTGCCCA [ACCCG],0.479 ± 0.026,0.389 ± 0.058
TTTTTTGATGATGCTCATGCTTTTTTTTTTTTTTTCCAGA [AGACC],0.635 ± 0.027,0.527 ± 0.028
TTTTTTGCTGCGCATGATGCTTTTTTTTTTTTTTTAATCA [ACTAA],0.489 ± 0.025,0.382 ± 0.028
TTTTTTGAGCAGCATGCTGATTTTTTTTTTTTTTTCTTAC [CATTC],0.404 ± 0.026,0.3 ± 0.017
